Data on 2 substances can be found in patent US20150037324A1.

A word on the EC50: it is the concentration at which the effect is half-maximal.

The target in test [1] is Recombinant human GPR49-Fc ectodomain (human). Put plainly: direct ELISA on coated GPR49-Fc, about 0.1-250 nM, A450; table without unit, nM from the axis [nM] Ab; control whose curve in FIG. 9G is flat (see non_binding), so the fitted value lies outside the range tested and carries no meaning. A general note: An ELISA detects its analyte on a solid surface through an enzyme-linked reagent.
Recombinant human GPR49-Fc ectodomain (human), sequence (chain, as listed by the source limits assumed, form in doubt): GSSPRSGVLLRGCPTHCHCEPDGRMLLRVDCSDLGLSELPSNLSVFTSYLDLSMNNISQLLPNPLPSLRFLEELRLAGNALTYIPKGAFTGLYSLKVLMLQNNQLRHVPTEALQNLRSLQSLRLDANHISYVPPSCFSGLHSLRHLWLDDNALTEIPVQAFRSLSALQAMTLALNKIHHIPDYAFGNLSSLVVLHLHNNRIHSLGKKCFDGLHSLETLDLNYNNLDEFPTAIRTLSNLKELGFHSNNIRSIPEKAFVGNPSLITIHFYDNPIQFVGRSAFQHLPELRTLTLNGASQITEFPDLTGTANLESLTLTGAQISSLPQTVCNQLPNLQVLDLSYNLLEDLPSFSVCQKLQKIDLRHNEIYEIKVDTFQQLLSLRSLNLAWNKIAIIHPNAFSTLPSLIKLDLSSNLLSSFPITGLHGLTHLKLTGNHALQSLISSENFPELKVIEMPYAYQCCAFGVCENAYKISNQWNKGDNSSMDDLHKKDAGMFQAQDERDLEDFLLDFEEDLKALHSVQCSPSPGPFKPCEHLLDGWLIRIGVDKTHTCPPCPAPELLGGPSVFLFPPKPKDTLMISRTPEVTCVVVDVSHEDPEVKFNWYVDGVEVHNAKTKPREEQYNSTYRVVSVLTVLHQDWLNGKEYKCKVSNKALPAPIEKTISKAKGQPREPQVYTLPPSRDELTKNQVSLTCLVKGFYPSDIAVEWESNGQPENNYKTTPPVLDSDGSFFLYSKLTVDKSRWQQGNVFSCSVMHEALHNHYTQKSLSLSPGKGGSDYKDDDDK

Test [2] deals with human GPR49 (G-Protein-coupled Receptor 49) on cells (human) (UniProt O75473). Put plainly: cell-based or functional assay.
human GPR49 (G-Protein-coupled Receptor 49) on cells (human), sequence (O75473 22-907 limits assumed): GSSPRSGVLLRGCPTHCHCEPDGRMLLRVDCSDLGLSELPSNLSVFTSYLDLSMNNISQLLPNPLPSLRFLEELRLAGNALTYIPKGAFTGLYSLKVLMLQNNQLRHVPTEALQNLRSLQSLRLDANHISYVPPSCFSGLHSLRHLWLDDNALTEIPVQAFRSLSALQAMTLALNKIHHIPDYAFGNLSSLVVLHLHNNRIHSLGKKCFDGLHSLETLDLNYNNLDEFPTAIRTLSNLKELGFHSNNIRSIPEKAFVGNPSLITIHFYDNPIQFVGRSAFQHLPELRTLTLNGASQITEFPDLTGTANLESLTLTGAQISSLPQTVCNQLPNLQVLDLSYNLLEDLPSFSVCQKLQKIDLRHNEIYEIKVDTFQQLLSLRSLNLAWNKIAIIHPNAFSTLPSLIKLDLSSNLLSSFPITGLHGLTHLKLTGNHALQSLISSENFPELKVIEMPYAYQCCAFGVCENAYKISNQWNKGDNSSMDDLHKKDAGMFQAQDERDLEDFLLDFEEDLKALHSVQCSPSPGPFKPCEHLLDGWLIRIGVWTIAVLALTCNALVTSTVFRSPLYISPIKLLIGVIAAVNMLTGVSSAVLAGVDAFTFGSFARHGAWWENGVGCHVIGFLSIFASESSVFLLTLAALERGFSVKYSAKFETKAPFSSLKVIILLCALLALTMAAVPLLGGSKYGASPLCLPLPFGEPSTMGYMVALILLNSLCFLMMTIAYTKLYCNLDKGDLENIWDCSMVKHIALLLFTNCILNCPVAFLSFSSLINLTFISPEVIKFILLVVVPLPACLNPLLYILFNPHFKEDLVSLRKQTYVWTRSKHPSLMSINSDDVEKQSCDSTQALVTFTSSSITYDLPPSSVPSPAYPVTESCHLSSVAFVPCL

For Ctrl (antibody), the EC50 in test [1] was 1580 nM.

R-spondin-1 (ligand) had an increase in proliferation, GPR49-3T3 clone 28 in test [2] of 4 fold.
